Data reported in publication PMC11948038 (2025).

Target: cytochrome c (UniProt P99999 2-105)
Test: NMR

cytochrome c, sequence (P99999 2-105): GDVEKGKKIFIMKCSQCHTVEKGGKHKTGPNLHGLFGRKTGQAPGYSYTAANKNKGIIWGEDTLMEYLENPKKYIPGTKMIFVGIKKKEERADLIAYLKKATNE

Kd: 379 µM
B1: full-length ANP32A (natural protein)
chain: MEMGRRIHLELRNRTPSDVKELVLDNSRSNEGKLEGLTDEFEELEFLSTINVGLTSIANLPKLNKLKKLELSDNRVSGGLEVLAEKCPNLTHLNLSGNKIKDLSTIEPLKKLENLKSLDLFNCEVTNLNDYRENVFKLLPQLTYLDGYDRDDKEAPDSDAEGYVEGLDDEEEDEDEEEYDEDAQVVEDEEDEDEEEEGEEEDVSGEEEEDEEGYNDGEVDDEEDEEELGEEERGQKRKREPEDEGEDDD
